Assay results taken from US20110142868A1 (CHIRALIX B V, published 2011).
Numbered stars: 1 amine (or outer) side, 2 acyl side, 3 side chain; on linkers, the order of the positions; unused ones are H or OH. Square brackets hold non-standard residues; d marks the D form. Ends that are not written are not given here. * marks the point of attachment. O(CA) = ornithine chloroamidine, N=C(CCl)NCCC[C@H](N[*:1])C(=O)[*:2]; Orn(fluoroacetimidoyl) = N=C(CF)NCCC[C@H](N)C(=O)O; Moc = COC(=O)*

T1: papain (UniProt P00784 134-345)
T1 sequence (looked up): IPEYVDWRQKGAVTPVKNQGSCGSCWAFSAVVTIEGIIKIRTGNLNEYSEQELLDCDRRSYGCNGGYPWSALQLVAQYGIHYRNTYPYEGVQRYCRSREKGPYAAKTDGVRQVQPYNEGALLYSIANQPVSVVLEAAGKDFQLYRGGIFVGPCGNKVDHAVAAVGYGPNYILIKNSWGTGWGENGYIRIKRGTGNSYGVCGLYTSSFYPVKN

B1: 0748-09FA (peptide)
peptide: Ac-KWH[Orn(fluoroacetimidoyl)]DFF-NH2
SMILES: CC(=O)N[C@@H](CCCCN)C(=O)N[C@@H](Cc1c[nH]c2ccccc12)C(=O)N[C@@H](Cc1c[nH]cn1)C(=O)N[C@@H](CCCNC(=N)CF)C(=O)N[C@@H](CC(=O)O)C(=O)N[C@@H](Cc1ccccc1)C(=O)N[C@@H](Cc1ccccc1)C(N)=O
B2: CXP5-101 (peptide)
peptide: Moc-TD[Orn(fluoroacetimidoyl)]GS-OMe
SMILES: COC(=O)N[C@H](C(=O)N[C@@H](CC(=O)O)C(=O)N[C@@H](CCCNC(=N)CF)C(=O)NCC(=O)N[C@@H](CO)C(=O)OC)[C@@H](C)O
B3: 0743-58FA (peptide)
peptide: Ac-KFD[Orn(fluoroacetimidoyl)]DFI-NH2
SMILES: CC[C@H](C)[C@H](NC(=O)[C@H](Cc1ccccc1)NC(=O)[C@H](CC(=O)O)NC(=O)[C@H](CCCNC(=N)CF)NC(=O)[C@H](CC(=O)O)NC(=O)[C@H](Cc1ccccc1)NC(=O)[C@H](CCCCN)NC(C)=O)C(N)=O

Experiments:
Assay in all cases: cell-based or functional assay
recombinant human PAD2 [1] = molecular target: T2, recombinant human PAD2 (human, UniProt Q9Y2J8 1-665)
recombinant human PAD4 [2] = molecular target: T3, recombinant human PAD4 (human, UniProt Q9UM07 1-663)
caspase-3 = molecular target: caspase-3
creatine kinase = molecular target: creatine kinase
transglutaminase = molecular target: transglutaminase
papain = molecular target: T1, papain
recombinant human PAD2 [3] = molecular target: T2, recombinant human PAD2; remark: listed apart in the source
recombinant human PAD4 [4] = molecular target: T3, recombinant human PAD4; remark: listed apart in the source
recombinant human PAD2 [5] = molecular target: T2, recombinant human PAD2; remark: listed apart in the source
recombinant human PAD4 [6] = molecular target: T3, recombinant human PAD4; remark: listed apart in the source
[7] = molecular target: human N(G),N(G)-dimethyl-L-arginine dimethylaminohydrolase isotype 1 (human, UniProt O94760 1-285)
recombinant human PAD2 [8] = molecular target: T2, recombinant human PAD2; remark: listed apart in the source
recombinant human PAD4 [9] = molecular target: T3, recombinant human PAD4; remark: listed apart in the source
recombinant human PAD2 [10] = molecular target: T2, recombinant human PAD2; remark: listed apart in the source
recombinant human PAD4 [11] = molecular target: T3, recombinant human PAD4; remark: listed apart in the source

T2 sequence (Q9Y2J8 whole entry): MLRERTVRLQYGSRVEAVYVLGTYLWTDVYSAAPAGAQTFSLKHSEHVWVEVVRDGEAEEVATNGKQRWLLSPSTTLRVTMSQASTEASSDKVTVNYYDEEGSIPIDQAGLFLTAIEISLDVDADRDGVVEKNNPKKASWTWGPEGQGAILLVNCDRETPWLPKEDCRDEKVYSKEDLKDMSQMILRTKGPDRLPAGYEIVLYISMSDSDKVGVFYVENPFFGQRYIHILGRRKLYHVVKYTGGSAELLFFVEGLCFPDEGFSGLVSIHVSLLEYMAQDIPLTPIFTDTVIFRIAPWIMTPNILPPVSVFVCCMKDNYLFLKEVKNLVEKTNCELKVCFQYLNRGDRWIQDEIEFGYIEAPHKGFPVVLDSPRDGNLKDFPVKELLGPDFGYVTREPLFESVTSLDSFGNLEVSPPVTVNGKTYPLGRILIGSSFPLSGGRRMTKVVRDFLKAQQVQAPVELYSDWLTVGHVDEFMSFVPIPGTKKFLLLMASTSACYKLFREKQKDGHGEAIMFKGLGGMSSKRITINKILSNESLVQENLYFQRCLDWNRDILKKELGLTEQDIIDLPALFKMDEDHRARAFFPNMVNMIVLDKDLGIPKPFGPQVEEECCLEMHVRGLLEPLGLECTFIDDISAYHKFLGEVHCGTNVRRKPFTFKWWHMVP
T3 sequence (Q9UM07 whole entry): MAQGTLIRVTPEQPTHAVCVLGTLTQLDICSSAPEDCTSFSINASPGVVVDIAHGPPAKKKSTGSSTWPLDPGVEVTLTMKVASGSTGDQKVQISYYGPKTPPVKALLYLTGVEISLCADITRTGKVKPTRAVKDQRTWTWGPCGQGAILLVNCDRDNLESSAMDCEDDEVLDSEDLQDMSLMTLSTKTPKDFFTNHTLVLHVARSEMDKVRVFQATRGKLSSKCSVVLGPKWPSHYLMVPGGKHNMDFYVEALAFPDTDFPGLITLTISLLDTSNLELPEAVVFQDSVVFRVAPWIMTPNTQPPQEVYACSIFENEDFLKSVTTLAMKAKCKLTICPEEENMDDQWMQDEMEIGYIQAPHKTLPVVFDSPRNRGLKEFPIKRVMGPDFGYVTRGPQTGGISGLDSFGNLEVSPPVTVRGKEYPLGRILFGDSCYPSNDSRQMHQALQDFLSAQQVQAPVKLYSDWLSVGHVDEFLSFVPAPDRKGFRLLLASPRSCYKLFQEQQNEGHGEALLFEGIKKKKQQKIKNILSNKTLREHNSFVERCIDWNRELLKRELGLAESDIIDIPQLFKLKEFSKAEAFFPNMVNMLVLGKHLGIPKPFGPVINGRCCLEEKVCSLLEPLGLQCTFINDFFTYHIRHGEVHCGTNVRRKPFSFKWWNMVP
Sequence of human N(G),N(G)-dimethyl-L-arginine dimethylaminohydrolase isotype 1 (O94760 whole entry): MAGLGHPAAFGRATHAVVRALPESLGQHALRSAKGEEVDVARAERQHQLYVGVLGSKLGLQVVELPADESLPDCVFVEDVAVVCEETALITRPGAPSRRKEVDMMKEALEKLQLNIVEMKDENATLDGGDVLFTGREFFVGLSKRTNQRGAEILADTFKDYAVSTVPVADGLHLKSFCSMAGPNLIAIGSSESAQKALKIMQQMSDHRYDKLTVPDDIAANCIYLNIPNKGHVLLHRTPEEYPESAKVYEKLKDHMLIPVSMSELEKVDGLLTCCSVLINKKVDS

| Binder | IC50 values (µM), caspase-3 activity assay (caspase-3) | IC50 values (µM), creatine kinase activity assay (creatine kinase) | IC50 values (µM), transglutaminase activity assay (transglutaminase) | IC50 values (µM), papain activity assay (papain) | IC50 values (µM), colorimetric assay (recombinant human PAD2 [5]) | IC50 values (µM), colorimetric assay (recombinant human PAD4 [6]) | IC50 values (µM), hDDAH-1 activity assay [7] | IC50 values (µM), ABAP PAD activity assay, second round (recombinant human PAD2 [8]) | IC50 values (µM), ABAP PAD activity assay, second round (recombinant human PAD4 [9]) | further results |
| --- | --- | --- | --- | --- | --- | --- | --- | --- | --- | --- |
| B1 | > 1000 µM | 1000 µM | > 1000 µM | > 2000 µM |  |  |  |  |  | conversion of 0708-30 by PAD2, 10 µM inhibitor (0 µM: 68) (recombinant human PAD2 [1]): 23%; conversion of 0708-30 by PAD2, 50 µM inhibitor (0 µM: 68) (recombinant human PAD2 [1]): 6%; conversion of 0708-30 by PAD2, 100 µM inhibitor (0 µM: 68) (recombinant human PAD2 [1]): 5%; conversion of 0708-30 by PAD4, 10 µM inhibitor (0 µM: 81) (recombinant human PAD4 [2]): 51%; conversion of 0708-30 by PAD4, 50 µM inhibitor (0 µM: 81) (recombinant human PAD4 [2]): 22%; conversion of 0708-30 by PAD4, 100 µM inhibitor (0 µM: 81) (recombinant human PAD4 [2]): 13%; Inhibition of PAD2: value at 10 µM inhibitor (0 µM: 76) (recombinant human PAD2 [3]): 25%; Inhibition of PAD2: value at 20 µM inhibitor (0 µM: 76) (recombinant human PAD2 [3]): 14%; Inhibition of PAD2: value at 40 µM inhibitor (0 µM: 76) (recombinant human PAD2 [3]): 8%; Inhibition of PAD2: value at 80 µM inhibitor (0 µM: 76) (recombinant human PAD2 [3]): 4%; Inhibition of PAD4: value at 10 µM inhibitor (0 µM: 67) (recombinant human PAD4 [4]): 51%; Inhibition of PAD4: value at 20 µM inhibitor (0 µM: 67) (recombinant human PAD4 [4]): 38%; Inhibition of PAD4: value at 40 µM inhibitor (0 µM: 67) (recombinant human PAD4 [4]): 27%; Inhibition of PAD4: value at 80 µM inhibitor (0 µM: 67) (recombinant human PAD4 [4]): 18% |
| B2 | > 1000 µM | 780 µM | 600 µM | > 2000 µM | 35 µM | 10 µM | > 2000 µM |  |  |  |
| KWH[Orn(fluoroacetimidoyl)]DFF [K W H O(FA) D F F] |  |  |  |  |  |  |  | 16 µM | 161 µM |  |
| TD[Orn(fluoroacetimidoyl)]GS [T-D-O(FA)-G-S] |  |  |  |  |  |  |  | 49 µM | 129 µM | IC50 values (µM), ABAP PAD activity assay (recombinant human PAD2 [10]): 19 µM; IC50 values (µM), ABAP PAD activity assay (recombinant human PAD4 [11]): 58 µM |
| B3 | 920 µM | 800 µM | 1000 µM | > 2000 µM | 35 µM | 6 µM | > 2000 µM |  |  | conversion of 0708-30 by PAD2, 10 µM inhibitor (0 µM: 68) (recombinant human PAD2 [1]): 33%; conversion of 0708-30 by PAD2, 50 µM inhibitor (0 µM: 68) (recombinant human PAD2 [1]): 8%; conversion of 0708-30 by PAD2, 100 µM inhibitor (0 µM: 68) (recombinant human PAD2 [1]): 4%; conversion of 0708-30 by PAD4, 10 µM inhibitor (0 µM: 81) (recombinant human PAD4 [2]): 38%; conversion of 0708-30 by PAD4, 50 µM inhibitor (0 µM: 81) (recombinant human PAD4 [2]): 19%; conversion of 0708-30 by PAD4, 100 µM inhibitor (0 µM: 81) (recombinant human PAD4 [2]): 10%; Inhibition of PAD2: value at 10 µM inhibitor (0 µM: 74) (recombinant human PAD2 [3]): 39%; Inhibition of PAD2: value at 20 µM inhibitor (0 µM: 74) (recombinant human PAD2 [3]): 26%; Inhibition of PAD2: value at 40 µM inhibitor (0 µM: 74) (recombinant human PAD2 [3]): 15%; Inhibition of PAD2: value at 80 µM inhibitor (0 µM: 74) (recombinant human PAD2 [3]): 9%; Inhibition of PAD4: value at 10 µM inhibitor (0 µM: 71) (recombinant human PAD4 [4]): 46%; Inhibition of PAD4: value at 20 µM inhibitor (0 µM: 71) (recombinant human PAD4 [4]): 36%; Inhibition of PAD4: value at 40 µM inhibitor (0 µM: 71) (recombinant human PAD4 [4]): 18%; Inhibition of PAD4: value at 80 µM inhibitor (0 µM: 71) (recombinant human PAD4 [4]): 13% |
| Ac-YD[O(CA)]GS [CXP5.2-081] | > 1000 µM | 1000 µM | > 1000 µM | > 2000 µM | 200 µM | 10 µM | 1330 µM |  |  |  |
| KFD[Orn(fluoroacetimidoyl)]DFI [K F D O(FA) D F I] |  |  |  |  |  |  |  | 17 µM | 122 µM |  |
| Ac-GD[O(CA)]GS [CXP5.2-078] | 1000 µM | 780 µM | 730 µM | 1050 µM | > 500 µM | 18 µM | 1200 µM |  |  |  |
